Source: patent US20240002490A1 (SCHOLAR ROCK, published 2024)

Experiments:
rat promyostatin [1] = target: T1, rat promyostatin (rat, UniProt O35312 25-376); assay: cell-based or functional assay
[2] = target: T2, cynomolgus monkey promyostatin (cynomolgus monkey, UniProt Q95J86 19-375); assay: cell-based or functional assay
rat promyostatin [3] = target: T1, rat promyostatin; assay: biolayer interferometry (ForteBio Octet QKe), apitegromab on human Fc capture tips, promyostatin in solution, 1:1 global fit, single concentration
Protocol: (§1) All baseline steps, loading of biotinylated antigens, and antibody association and dissociation steps were performed in 1× kinetics buffer containing PBS pH 74 with 0.002% Tween 20 and 0.01% BSA. Association proceeded for 300 seconds and dissociations were then performed in 1× kinetics buffer for at least 600 seconds. Data analysis was performed on FortèBio Data Analysis software version 8.2. A 1:1 global fitting model considering both association and dissociation was then utilized for the single concentration KD determination for each antigen antibody/construct pair.

[4] = target: T2, cynomolgus monkey promyostatin; assay: as above
Protocol: as §1

IC50 of inhibition of proteolytic activation of promyostatin (SMAD-responsive luciferase reporter cells) (rat promyostatin [1]): 153 nM
IC50 of inhibition of proteolytic activation of promyostatin (SMAD-responsive luciferase reporter cells) [2]: 584 nM
Kd (rat promyostatin [3]): 2 nM
Kd [4]: 4.86 nM
B1: Apitegromab (antibody, human IgG4 S228P, lambda, V domains shown)
VH: QVQLVESGGGVVQPGRSLRLSCAASGFTFSSYGMHWVRQAPGKGLEWVAVISYDGSNKYYADSVKGRFTISRDNSKNTLYLQMNSLRAEDTAVYYCARDLLVRFLEWSHYYGMDVWGQGTTVTVSS
VL: not shown
notes: Fully human monoclonal IgG4/lambda; also called SRK-015; anti-pro/latent myostatin antibody
